Molecular target: C4 single-chain Fv antibody (C4 scFv) (human (from a human scFv phage-display …))
Test: ITC

Row | Ka | Binder
1 | 6.87e+06 M⁻¹ | MATLEKLMKAFESLK [truncated peptide HTT(1-15)]
2 | 3.09e+06 M⁻¹ | MATLEKLMKAFESL [truncated peptide HTT(1-14)]
3 | 9.08e+06 M⁻¹ | MATLEKLMKAFESLKS [truncated peptide HTT(1-16)]
4 | 1.8e+07 M⁻¹ | MATLEKLMKAFESLKSF [HTT(1-17) peptide, the 17 N-terminal residues of huntingtin]

From article PMC4451460 (2015)
